For assay [1], the target named is T1, recombinant human TIMP-3 (human, UniProt P35625 24-211).
T1 sequence (looked up): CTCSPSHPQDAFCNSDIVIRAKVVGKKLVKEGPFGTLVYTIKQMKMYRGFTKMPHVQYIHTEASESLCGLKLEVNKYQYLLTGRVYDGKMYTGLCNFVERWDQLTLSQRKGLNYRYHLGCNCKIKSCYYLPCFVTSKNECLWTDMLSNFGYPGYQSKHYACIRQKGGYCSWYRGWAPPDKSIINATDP
The assay can be described thus: cell-based or functional assay.

The next assay has as its target MMP-13 (UniProt P45452 20-471, limits assumed). The assay can be described thus: cell-based or functional assay.
The next assay deals with T2, recombinant mouse TIMP-3 (mouse, UniProt P39876 24-211).
T2 construct: also called MuTIMP-3
T2 sequence (looked up): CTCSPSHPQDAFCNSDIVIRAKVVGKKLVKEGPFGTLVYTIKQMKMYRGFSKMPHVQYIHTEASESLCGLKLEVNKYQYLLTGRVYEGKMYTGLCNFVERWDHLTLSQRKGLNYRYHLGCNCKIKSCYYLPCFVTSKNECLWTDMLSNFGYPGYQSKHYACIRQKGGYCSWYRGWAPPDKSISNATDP
The experiment in a line: direct ELISA, coated muTIMP-3. On the procedure: (§1) After incubation, the coating solution is removed and replaced with 250 microL/well of blocking buffer (1% BSA, TBS [pH 7.5], 1 mM CaCl₂) and incubated with shaking for 1 hour at room temperature. The plates are then washed three times with 200 microL/well with wash buffer 1 (TBS [pH 7.5], 1 mM CaCl₂). The LRP-1 peptides are titrated in assay buffer (0.1% BSA, TBS [pH 7.5], 1 mM CaCl₂, 0.02% Tween-20) in a separate polypropylene non-treated round-bottom 96-well plate (BD Falcon™) starting at 1 microM concentration and then diluted serially 4-fold for 8-points, with the last point buffer only. Then 100 microL/well of the diluted LRP-1 peptide titration is added to the TIMP-3 coated plate and allowed to bind for 1.5 hour at room temperature with shaking. After incubation, the plate is washed three times with 200 microL/well of wash buffer 2 (TBS [pH 7.5], 1 mM CaCl₂, 0.02% Tween-20). […] The assay plate is then washed three times with 200 microL/well with wash buffer 2. The plate is developed by adding 100 microL/well of 1:1 mixture of TMB and H₂O₂ (Pierce, Fisher Thermo Scientific, Rockford Il.), the reaction is stopped by adding 100 microL/well 2NH₂SO₄ (VWR), and read on a SpectraMax microplate reader (Molecular Devices, Sunnyvale, Calif.) at OD450 nm using SOFTmax Pro software version 3.1.2. Data is analyzed using GraphPad Prism 4.01 software. Binding of LRP-1 peptides to TIMP-3 is expressed as binding EC50.
A general note: In an ELISA, binding on a coated surface is turned into a signal by an enzyme label.

For assay [2], the target named is T3, recombinant TIMP-3 (human or mouse; Table 2 does not say which).
T3 construct: The methods say 'human or mouse TIMP-3'
The assay can be described thus: binding ELISA, Assay 2.

Assay [3] addresses T3, recombinant TIMP-3 (human or mouse; …). The experiment in a line: AlphaScreen, biotinylated TIMP-3, Assay 1. On the procedure: Peptides were also evaluated by AlphaScreen® (Amplified Luminescent Proximity Homogeneous Assay; PerkinElmer, Waltham, Mass.) a very sensitive non-radioactive homogeneous assay technology that allows the screening of a large range of biological interactions and activities, substantially according to the manufacturer's instructions. Briefly, all dilutions are made in AlphaScreen® Buffer: [40 mM HEPES pH 7.5, 100 mM NaCl, 1 mM CaCl2, 0.1% BSA, 0.05% Tween-20]. The LRP-1 peptides are titrated in a separate polypropylene 96-well plate (Falcon) starting at 4 microM concentration and then diluted serially 3-fold for 12-points, with the last point buffer only. First 2 microL/well of protein titration curve is added to white, small volume, 384-well assay plate (Greiner Bio-One, Stonehouse, UK) in duplicate. Next, 2 microL of biotinylated (AFS, in-house conjmicroGation) recombinant human or mouse TIMP-3, is added at 12 nM (or 3 nM final assay concentration) to the assay plate. Lastly, in subdued light 4 microL of a mixture of streptavidin donor beads, anti-mouse IgG acceptor beads (PerkinElmer) both diluted to 20 microG/mL (10 microG/mL final assay concentration) and 2 nM (1 nM final concentration) rat-anti-HA (clone3F10)-HRP (Roche Diagnostics) is added to the plates. Plates containing 8 microL final assay volme are covered with TopSeal A (to prevent evaporation), spun quickly at 1000 rpm, and incubated overnight (covered with foil to prevent light exposure) before reading on Fusion plate reader (PerkinElmer) using AlphaScreen® parameters (excitation 680 nm and emission 520-620 nm). Data is analyzed using GraphPad Prism 4.01 software. Binding to TIMP-3 is reported as total signal (cps).
Background: Alpha assays give light when donor and acceptor beads are brought close together.

Assay [4] has as its target T1, recombinant human TIMP-3. The assay can be described thus: indirect ELISA, huTIMP-3 captured by anti-TIMP-3 clone 277128. Here is the method:
Then 100 microL/well of the diluted LRP-1 peptide titration is added to the TIMP-3 coated plate and allowed to bind for 1.5 hour at room temperature with shaking. After incubation, the plate is washed three times with 200 microL/well of wash buffer 2 (TBS [pH 7.5], 1 mM CaCl₂, 0.02% Tween-20). […] The assay plate is then washed three times with 200 microL/well with wash buffer 2. The plate is developed by adding 100 microL/well of 1:1 mixture of TMB and H₂O₂ (Pierce, Fisher Thermo Scientific, Rockford Il.), the reaction is stopped by adding 100 microL/well 2NH₂SO₄ (VWR), and read on a SpectraMax microplate reader (Molecular Devices, Sunnyvale, Calif.) at OD450 nm using SOFTmax Pro software version 3.1.2. Data is analyzed using GraphPad Prism 4.01 software. Binding of LRP-1 peptides to TIMP-3 is expressed as binding EC50.
After incubation, the plate contents are discarded and 250 microL/well of blocking buffer (1% BSA, TBS [pH 7.5], 1 mM CaCl₂) is added to the plate which is incubated with shaking for 1 hour at room temperature. The plate is then washed three times with 200 microL/well with wash buffer 1 (TBS [pH 7.5], 1 mM CaCl₂) followed by the addition of 100 microL of 20 nM recombinant human TIMP-3. The plate is incubated at room temperature for 1 hour. The LRP-1 peptides are titrated as described previously, and 100 microL/well of the diluted LRP-1 peptide titration is added to the TIMP-3 coated plate and allowed to bind for 1.5 hour at room temperature with shaking. After incubation, the plate is washed and the ELISA performed substantially as described previously for the direct binding ELISA.

For assay [5], the target named is T1, recombinant human TIMP-3. The assay can be described thus: direct ELISA, coated huTIMP-3. On the procedure:
as §1

“And” between values parts separate entries of the source, which are not always exact repeats. Equal values may be shown once.

The record followed here is US20120231013A1 (Amgen, published 2012).

B1: LRP-1 peptide LA26-28 (peptide)
chain: CEPYQFRCKNNRCVPGRWQCDYDNDCGDNSDEESCTPRPCSESEFSCANGRCIAGRWKCDGDHDCADGSDEKDCTPRCDMDQFQCKSGHCIPLRWRCDADADCMDGSDEEACGTGVRT
With B1, in the assay with recombinant human TIMP-3 [1], the “% of the inhibitory activity of TIMP-3 + peptide compared to TIMP-3 alone, 16 nM” value (from here on “% of the inhibitory activity … 16 nM”) worked out at 100%; the “% of the inhibitory activity of TIMP-3 + peptide compared to TIMP-3 alone, 80 nM” value (“% of the inhibitory activity … 80 nM” below) came out at 100%; the “% of the inhibitory activity of TIMP-3 + peptide compared to TIMP-3 alone, 400 nM” value (“% of the inhibitory activity … 400 nM” below) came to 104%. Further, in the assay with MMP-13, the “Direct Inhibition of MMP13 (% decrease), 1000 nM” value stood at 53%.

B2: LRP-1 peptide LA23 (peptide)
chain: CLPSQFKCTNTNRCIPGIFRCNGQDNCGDGEDERDCPEVT
Turning to B2, in the assay with recombinant human TIMP-3 [1], the “% of the inhibitory activity … 16 nM” value came to 104%; the “% of the inhibitory activity … 80 nM” value was found to be 107%; the “% of the inhibitory activity of TIMP-3 + peptide compared to TIMP-3 alone, 2000 nM” value (shortened to “% of the inhibitory activity … 2000 nM”) came to 84%. The “Direct Inhibition of MMP13 (% decrease), 1000 nM” value with MMP-13 is 46%.

B3: LRP-1 peptide LA6 (peptide)
chain: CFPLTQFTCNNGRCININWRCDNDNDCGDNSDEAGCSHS
notes: Tags implied (Ni-NTA, anti-HA detection), not described
For orientation: EC50 means the concentration at which the effect is half-maximal. Take B3: the EC50 with recombinant mouse TIMP-3 was 38 nM; in assay [2], 1210 nM; in the assay with recombinant human TIMP-3 [4], 9 nM; in the assay with recombinant human TIMP-3 [5], 95 nM. In addition, in the assay with MMP-13, the “Direct Inhibition of MMP13 (% decrease), 1000 nM” value was 57%. In addition, the “total signal (cps)” value in assay [3] stood at 2200 cps.

B4: LRP-1 peptide LA16 (peptide)
chain: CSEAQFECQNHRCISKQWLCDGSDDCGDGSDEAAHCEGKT
Take B4: in the assay with recombinant human TIMP-3 [1], the “% of the inhibitory activity … 16 nM” value came to 105%; the “% of the inhibitory activity … 80 nM” value is 101%; the “% of the inhibitory activity … 400 nM” value is 52%; the “% of the inhibitory activity … 2000 nM” value is 89%. For the same molecule, the “Direct Inhibition of MMP13 (% decrease), 1000 nM” value with MMP-13 is 20%.

B5: LRP-1 peptide LA21 (peptide)
chain: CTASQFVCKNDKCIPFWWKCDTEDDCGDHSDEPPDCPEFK
notes: as for B3
Consider B5, for which the concentration giving a half-maximal response (EC50) turned out to be 206 nM in the assay with recombinant mouse TIMP-3, 1020 nM in assay [2], 313 nM in the assay with recombinant human TIMP-3 [4] and 303 nM with recombinant human TIMP-3 [5]. The “Direct Inhibition of MMP13 (% decrease), 1000 nM” value with MMP-13 was -2%. Moreover, in assay [3], the “total signal (cps)” value is 2200 cps.

B6: LRP-1 peptide LA17 (peptide)
chain: CGPSSFSCPGTHVCVPERWLCDGDKDCADGADESIAAGCLYNST
notes: as for B3
Consider B6, for which, in the assay with recombinant human TIMP-3 [1], the “% of the inhibitory activity … 80 nM” value amounted to 93%; the “% of the inhibitory activity … 400 nM” value worked out at 77%; the “% of the inhibitory activity … 2000 nM” value was determined as 77%. Besides, the “Direct Inhibition of MMP13 (% decrease), 1000 nM” value in the assay with MMP-13 stood at 41%. Also, the “total signal (cps)” value in assay [3] was 2200 cps. For the same molecule, the EC50 with recombinant human TIMP-3 [5] was determined as 886 nM.

B7: LRP-1 peptide LA4-5 (peptide)
chain: CPSDRFKCENNRCIPNRWLCDGDNDCGNSEDESNATCSARTCPPNQFSCASGRCIPISWTCDLDDDCGDRSDESASCAYPT
With B7, in the assay with recombinant human TIMP-3 [1], the “% of the inhibitory activity … 80 nM” value is 101% and the “% of the inhibitory activity … 2000 nM” value worked out at 104%. The “Direct Inhibition of MMP13 (% decrease), 1000 nM” value with MMP-13 was determined as 26%.

B8: LRP-1 peptide LA3 (peptide)
chain: not shown
Consider B8, for which, in the assay with recombinant human TIMP-3 [1], the “% of the inhibitory activity … 80 nM” value is 84%; the “% of the inhibitory activity … 400 nM” value came out at 80%; the “% of the inhibitory activity … 2000 nM” value came out at 109%. The “Direct Inhibition of MMP13 (% decrease), 1000 nM” value with MMP-13 is 7%.

B9: LRP-1 peptide LA21-23 (peptide)
chain: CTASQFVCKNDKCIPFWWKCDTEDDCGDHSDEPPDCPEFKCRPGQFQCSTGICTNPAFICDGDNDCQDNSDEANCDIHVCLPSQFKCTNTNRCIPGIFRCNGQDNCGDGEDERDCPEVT
On to B9, for which, in the assay with recombinant human TIMP-3 [1], the “% of the inhibitory activity … 16 nM” value is 97%; the “% of the inhibitory activity … 80 nM” value stood at 96%; the “% of the inhibitory activity … 400 nM” value amounted to 100%; the “% of the inhibitory activity … 2000 nM” value came out at 107%. Besides, the “Direct Inhibition of MMP13 (% decrease), 1000 nM” value with MMP-13 was 19%.

B10: LRP-1 peptide LA28 (peptide)
chain: not shown
notes: as for B3
Consider B10, for which the “Direct Inhibition of MMP13 (% decrease), 1000 nM” value with MMP-13 was 32%. For the same molecule, the EC50 in assay [2] worked out at 300 nM; with recombinant human TIMP-3 [4], 972 nM. Further, the “total signal (cps)” value in assay [3] was found to be 2200 cps.

B11: LRP-1 peptide LA7 (peptide)
chain: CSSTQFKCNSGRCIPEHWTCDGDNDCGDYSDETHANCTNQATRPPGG
notes: The end 1061 is inferred from the end of LA5-7; Tags implied, not described
Regarding B11, the EC50 in assay [2] was around 2500 nM. Also, the “total signal (cps)” value in assay [3] was found to be 2200 cps.

B12: LRP-1 peptide LA22 (peptide)
chain: not shown
notes: as for B3
As for B12, the EC50 with recombinant mouse TIMP-3 is 394 nM and 478 nM; in assay [2], 426 nM; with recombinant human TIMP-3 [4], 185 nM and 200 nM; in the assay with recombinant human TIMP-3 [5] it was 456 nM and 340 nM. In addition, the “Direct Inhibition of MMP13 (% decrease), 1000 nM” value with MMP-13 is 59%. The “total signal (cps)” value in assay [3] is 2200 cps.

B13: LRP-1 peptide LA5 (peptide)
chain: not shown
Take B13: in the assay with MMP-13, the “Direct Inhibition of MMP13 (% decrease), 1000 nM” value was 69%.

B14: LRP-1 peptide LA20 (peptide)
chain: CNASSQFLCSSGRCVAEALLCNGQDDCGDSSDERGCHINE
Take B14: the “Direct Inhibition of MMP13 (% decrease), 1000 nM” value with MMP-13 is 0%.

B15: LRP-1 peptide LA11-20 (peptide)
chain: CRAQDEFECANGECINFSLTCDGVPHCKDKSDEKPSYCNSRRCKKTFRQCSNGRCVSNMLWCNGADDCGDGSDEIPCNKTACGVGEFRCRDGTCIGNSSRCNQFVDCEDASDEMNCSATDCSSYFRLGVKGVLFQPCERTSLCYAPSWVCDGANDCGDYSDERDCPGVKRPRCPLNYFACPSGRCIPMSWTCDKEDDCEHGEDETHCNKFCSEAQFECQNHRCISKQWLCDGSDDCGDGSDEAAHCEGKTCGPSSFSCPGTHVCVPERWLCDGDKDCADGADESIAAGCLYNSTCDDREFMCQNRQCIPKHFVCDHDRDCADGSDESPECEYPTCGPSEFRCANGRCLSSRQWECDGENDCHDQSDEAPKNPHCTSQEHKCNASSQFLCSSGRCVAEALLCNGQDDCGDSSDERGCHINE
In the case of B15, in the assay with MMP-13, the “Direct Inhibition of MMP13 (% decrease), 1000 nM” value turned out to be 26%.

B16: LRP-1 peptide LA27 (peptide)
chain: not shown
For B16, the “Direct Inhibition of MMP13 (% decrease), 1000 nM” value with MMP-13 is 47%.
